Data on one molecule can be found in US20050187156A1 (Stanford University, published 2005).

This experiment deals with T1, GST-εRACK (human εRACK expressed as a GST fusion protein) (human, UniProt P35606 1-906).
T1 construct: 10 ng was immobilized on Glutathione-Sepharose 4B beads; also called immobilized GST-εRACK; not shown: glutathione S-transferase (GST) tag of baculovirus vector PacG3X (BD Biosciences)
T1 sequence (looked up): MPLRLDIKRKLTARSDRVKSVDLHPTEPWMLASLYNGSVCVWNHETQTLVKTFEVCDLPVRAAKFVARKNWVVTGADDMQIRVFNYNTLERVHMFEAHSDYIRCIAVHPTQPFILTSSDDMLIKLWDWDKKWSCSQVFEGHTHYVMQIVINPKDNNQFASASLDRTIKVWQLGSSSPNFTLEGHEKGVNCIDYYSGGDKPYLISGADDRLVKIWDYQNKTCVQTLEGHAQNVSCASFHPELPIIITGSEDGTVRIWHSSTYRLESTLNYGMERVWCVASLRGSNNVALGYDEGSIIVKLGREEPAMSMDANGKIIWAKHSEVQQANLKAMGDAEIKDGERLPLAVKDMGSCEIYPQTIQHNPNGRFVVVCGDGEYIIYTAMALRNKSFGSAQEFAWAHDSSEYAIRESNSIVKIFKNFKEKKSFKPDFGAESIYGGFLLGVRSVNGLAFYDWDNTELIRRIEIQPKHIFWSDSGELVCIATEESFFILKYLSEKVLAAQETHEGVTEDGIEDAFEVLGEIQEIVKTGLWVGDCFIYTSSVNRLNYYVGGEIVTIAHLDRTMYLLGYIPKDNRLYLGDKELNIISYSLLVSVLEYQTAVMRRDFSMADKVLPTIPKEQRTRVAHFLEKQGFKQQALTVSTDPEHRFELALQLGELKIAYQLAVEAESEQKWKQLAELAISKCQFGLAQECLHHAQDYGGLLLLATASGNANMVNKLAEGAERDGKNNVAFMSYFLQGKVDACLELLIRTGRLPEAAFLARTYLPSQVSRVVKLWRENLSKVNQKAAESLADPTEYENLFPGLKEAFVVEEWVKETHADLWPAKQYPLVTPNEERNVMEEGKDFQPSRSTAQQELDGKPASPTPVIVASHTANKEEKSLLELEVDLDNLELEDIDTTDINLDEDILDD
In words: pull-down of insect cell-expressed εPKC on GST-εRACK immobilized on glutathione-Sepharose beads, no phospholipid activators, Western blot with anti-εPKC V5. As to the method:
RACKs bind active PKC [Mochly-Rosen, D. & Gordon, A. S., FASEB J. 12:35-42 (1998); Mochly-Rosen, D. et al., Molec. Biol. Cell. (formerly Cell Regulation) 1:693-706 (1990).
Insect cells expressing either εPKC or GST-εRACK were lysed as described in Example 4. GST-εRACK, 10 ng was immobilized on Glutathion-Sepharose 4B beads (Amersham-Pharmacia), and washed thoroughly with wash buffer (20 mM Tris-HCl pH 7.5, 2 mM EDTA, 100 mM NaCl, 12 mM pME, and 0.1% TritonX-100). Immobilized GST-εRACK was then incubated with the soluble fraction of insect cell lysates containing 100 ng Wt, D(86)A, or D(86)N εPKC protein, in the presence or absence of phospholipid activators (PL) (phosphatidylserine 12 μg/reaction and, Sn-1,2 dioleoylglycerol 400 ng/reaction) for 1 hour at 4° C. Upon thorough washing with wash buffer, bound proteins were eluted in SDS-PAGE sample buffer and proteins separated on 8% SDS-PAGE gels. The amount of εPKC interacting with εRACK was determined by Western blot probing for εPKC with anti εPKC-V5 antibodies. Blots were then re-probed with ant-GST (Santa Cruz) to verify that the same amount of GST-εRACK was present in each binding assay. All other methods for this Example were performed as described, for example, in Example 4.

B1: D(86)A εPKC mutant (enzyme, human, UniProt Q02156 1-737, looked up)
chain: MVVFNGLLKIKICEAVSLKPTAWSLRHAVGPRPATFLLDPYIALNVDDSRIGQTATKQKTNSPAWHDEFVTDVCNGRKIELAVFHAAPIGYDDFVANCTIQFEELLQNGSRHFEDWIDLEPEGRVYVIIDLSGSSGEAPKDNEERVFRERMRPRKRQGAVRRRVHQVNGHKFMATYLRQPTYCSHCRDFIWGVIGKQGYQCQVCTCVVHKRCHELIITKCAGLKKQETPDQVGSQRFSVNMPHKFGIHNYKVPTFCDHCGSLLWGLLRQGLQCKVCKMNVHRRCETNVAPNCGVDARGIAKVLADLGVTPDKITNSGQRRKKLIAGAESPQPASGGSPSEEDRSKSAPTSPCDQEIKELENNIRKALSFDNRGEEHRAASSPDGQLMSPGENGEVRQGQAKRLGLDEFNFIKVLGKGSFGKVMLAELKGKDEVYAVKVLKKDVILQDDDVDCTMTEKRILALARKHPYLTQLYCCFQTKDRLFFVMEYVNGGDLMFQIQRSRKFDEPRSRFYAAEVTSALMFLHQHGVIYRDLKLDNILLDAEGHCKLADFGMCKEGILNGVTTTTFCGTPDYIAPEILQELEYGPSVDWWALGVLMYEMMAGQPPFEADNEDDLFESILHDDVLYPVWLSKEAVSILKAFMTKNPHKRLGCVASQNGEDAIKQHPFFKEIDWVLLEQKKIKPPFKPRIKTKRDVNNFDQDFTREEPVLTLVDEAIVKQINQEEFKGFSYFGEDLMP
notes: Used as the soluble fraction of a Hi5 insect cell lysate containing 100 ng εPKC protein; also called D(86)A ΨεRACK mutant; A mutant
For B1, the “fold binding relative to D(86)N or Wt εPKC (absence of PL activators)” value was not below 2 fold.
